Columns and labels:
[1] = molecular target: T1, non-fluorescence protein-tagged PRL2 (human, UniProt Q12974-1 1-167); experiment: ITC; cell 20 uM PRL2, syringe 200 uM CNNM3 CBS protein, 25 C, 20 mM Tris-HCl pH 7.0, 50 mM NaCl, 1 mM TCEP; settings: both partners purified
T1 construct: human PRL2, NP_001356788.1, residues 1-167; Subcloned into pET28a; the limits 1-167 are printed for human PRL2 in the same paragraph; also called non-CyPet-tagged PRL2; source: E. coli Rosetta (DE3), purified (Ni-NTA, SEC)
T1 sequence (looked up): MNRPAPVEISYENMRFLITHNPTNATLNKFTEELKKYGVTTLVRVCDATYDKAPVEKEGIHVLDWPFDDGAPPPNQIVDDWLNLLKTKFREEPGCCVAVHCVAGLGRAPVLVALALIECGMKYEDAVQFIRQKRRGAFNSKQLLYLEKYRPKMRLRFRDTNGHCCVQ

[2] = molecular target: T2, PRL2 (residues 1-167) with CyPet at its N-terminus (human, UniProt Q12974-1 1-167); experiment: FRET or BRET; 30 nM CyPet-PRL2 mixed with serial dilutions of CNNM3 CBS-YPet (0-300 nM) in 96-well plates, TBS (50 mM Tris-HCl pH 8.0, 150 mM NaCl), R.T. 1 h, excitation 435 nm, emission 530 nm; settings: both partners purified
T2 construct: human PRL2 (phosphatase of regenerating liver 2), NP_001356788.1, residues 1-167; GS linker between CyPet and PRL2; pET22c derivative; Methods and discussion sometimes call it YPet-PRL2; also called CyPet-PRL2; CyPet-PRL2 WT; source: E. coli Rosetta (DE3), purified (Ni-NTA, SEC); not shown: CyPet (monomeric mutation A206K), N-terminal, kept
T2 sequence (looked up): T1 sequence (looked up)

B1: non-YPet-tagged CNNM3 CBS domain (domain or fragment, human, UniProt Q8NE01 301-452, looked up)
chain: YSDLSKGVLRCRTVEDVLTPLEDCFMLDASTVLDFGVLASIMQSGHTRIPVYEEERSNIVDMLYLKDLAFVDPEDCTPLSTITRFYNHPLHFVFNDTKLDAVLEEFKRGKSHLAIVQKVNNEGEGDPFYEVLGLVTLEDVIEEIIRSEILDE
notes: CBS domain of human CNNM3, XP_011509259.1, residues 301-452; Subcloned into pET28a; the limits 301-452 are printed for the CBS domain in the same paragraph; also called non-fluorescence-tagged CNNM3; CNNM3 CBS protein; source: E. coli Rosetta (DE3), purified (Ni-NTA, anion exchange)
Kd [1]: 15.2 ± 5 nM

B2: CNNM3 CBS domain (residues 301-452) with YPet at its C-terminus (domain or fragment, human, UniProt Q8NE01 301-452, looked up)
chain: B1 chain
notes: CBS domain of human CNNM3 (cyclin M3), XP_011509259.1, residues 301-452; GS linker between the CBS domain and YPet; pET22c derivative; Methods and discussion sometimes call it CNNM3 CBS-CyPet; also called CNNM3-YPet; CNNM3 CBS-YPet; source: E. coli Rosetta (DE3), purified (Ni-NTA, anion exchange); not shown: YPet, C-terminal, kept
Kd [2]: 108 ± 16 nM

Reference: paper PMC7393355, “A FRET-based screening method to detect potential inhibitors of the binding of CNNM3 to PRL2” (Scientific Reports, 2020)
